In the oligonucleotide strings, read from the 5' end, every base follows the letter of its sugar. An asterisk marks phosphorothioate; unmarked linkages are phosphodiester. Other units and linkages are bracketed, terminal groups are in braces. A string of capitals states the bases alone. m = 2'-O-methyl; r = 2'-OH (RNA)
B1: GA188: PCSK9 gRNA; protospacer TATTCATCCGCCCGGTACCG (SEQ ID NO: 182) (nucleic acid)
guide: mU*mA*mU*rUrCrArUrCrCrGrCrCrCrGrGrUrArCrCrGrGrUrUrUrUrArGrArGrCrUrArGrArArArUrArGrCrArArGrUrUrArArArArUrArArGrGrCrUrArGrUrCrCrGrUrUrArUrCrArArCrUrUrGrArArArArArGrUrGrGrCrArCrCrGrArGrUrCrGrGrUrGrCrU*mU*mU*mU
B2: GA192: PCSK9 gRNA; protospacer CCATGTCGACTACATCGAGG (SEQ ID NO: 186) (nucleic acid)
guide: mC*mC*mA*rUrGrUrCrGrArCrUrArCrArUrCrGrArGrGrGrUrUrUrUrArGrArGrCrUrArGrArArArUrArGrCrArArGrUrUrArArArArUrArArGrGrCrUrArGrUrCrCrGrUrUrArUrCrArArCrUrUrGrArArArArArGrUrGrGrCrArCrCrGrArGrUrCrGrGrUrGrCrU*mU*mU*mU
B3: GA191: PCSK9 gRNA; protospacer GCCCCATGTCGACTACATCG (SEQ ID NO: 185) (nucleic acid)
guide: mG*mC*mC*rCrCrArUrGrUrCrGrArCrUrArCrArUrCrGrGrUrUrUrUrArGrArGrCrUrArGrArArArUrArGrCrArArGrUrUrArArArArUrArArGrGrCrUrArGrUrCrCrGrUrUrArUrCrArArCrUrUrGrArArArArArGrUrGrGrCrArCrCrGrArGrUrCrGrGrUrGrCrU*mU*mU*mU
B4: GA195: PCSK9 gRNA; protospacer ACCACCGGGAAATCGAGGGC (SEQ ID NO: 189) (nucleic acid)
guide: ACCACCGGGAAAUCGAGGGCGUUUUAGAGCUAGAAAUAGCAAGUUAAAAUAAGGCUAGUCCGUUAUCAACUUGAAAAAGUGGCACCGAGUCGGUGCUUUU
modifications: sugars from the 5' end m3 r94 m3, linkages s3 o93 s3 (s phosphorothioate, o phosphodiester), T or U not given here
B5: GA194: PCSK9 gRNA; protospacer GTCGACATGGGGCAACTTCA (SEQ ID NO: 188) (nucleic acid)
guide: GUCGACAUGGGGCAACUUCAGUUUUAGAGCUAGAAAUAGCAAGUUAAAAUAAGGCUAGUCCGUUAUCAACUUGAAAAAGUGGCACCGAGUCGGUGCUUUU
modifications: sugars from the 5' end m3 r94 m3, linkages s3 o93 s3 (s phosphorothioate, o phosphodiester), T or U not given here
B6: GA187: PCSK9 gRNA; protospacer CTCCTCGATGTAGTCGACAT (SEQ ID NO: 181) (nucleic acid)
guide: mC*mU*mC*rCrUrCrGrArUrGrUrArGrUrCrGrArCrArUrGrUrUrUrUrArGrArGrCrUrArGrArArArUrArGrCrArArGrUrUrArArArArUrArArGrGrCrUrArGrUrCrCrGrUrUrArUrCrArArCrUrUrGrArArArArArGrUrGrGrCrArCrCrGrArGrUrCrGrGrUrGrCrU*mU*mU*mU
B7: GA189: PCSK9 gRNA; protospacer TCCTCGATGTAGTCGACATG (SEQ ID NO: 183) (nucleic acid)
guide: mU*mC*mC*rUrCrGrArUrGrUrArGrUrCrGrArCrArUrGrGrUrUrUrUrArGrArGrCrUrArGrArArArUrArGrCrArArGrUrUrArArArArUrArArGrGrCrUrArGrUrCrCrGrUrUrArUrCrArArCrUrUrGrArArArArArGrUrGrGrCrArCrCrGrArGrUrCrGrGrUrGrCrU*mU*mU*mU
B8: GA157: PCSK9 gRNA; protospacer GCCGTCCTCCTCGGAACGCA (SEQ ID NO: 151) (nucleic acid)
guide: mG*mC*mC*rGrUrCrCrUrCrCrUrCrGrGrArArCrGrCrArGrUrUrUrUrArGrArGrCrUrArGrArArArUrArGrCrArArGrUrUrArArArArUrArArGrGrCrUrArGrUrCrCrGrUrUrArUrCrArArCrUrUrGrArArArArArGrUrGrGrCrArCrCrGrArGrUrCrGrGrUrGrCrU*mU*mU*mU
B9: GA193: PCSK9 gRNA; protospacer GGGGCTGGTATTCATCCGCC (SEQ ID NO: 187) (nucleic acid)
guide: GGGGCUGGUAUUCAUCCGCCGUUUUAGAGCUAGAAAUAGCAAGUUAAAAUAAGGCUAGUCCGUUAUCAACUUGAAAAAGUGGCACCGAGUCGGUGCUUUU
modifications: sugars from the 5' end m3 r94 m3, linkages s3 o93 s3 (s phosphorothioate, o phosphodiester), T or U not given here

Experiments:
PCSK9 gene [1] = experiment: PCSK9 gRNA/SpCas9 editing in primary human hepatocytes (Tables 2, 4); format: cell-based; settings: SpCas9 mRNA MS002 1:1 by weight; for Human Primary Hepatocyte Editing % 100: 100 ng/RNA/mL; for Human Primary Hepatocyte Editing % 500: 500 ng/RNA/mL; for Human Primary Hepatocyte Editing % 2500: 2500 ng/RNA/mL
Procedure: (§1) In set of experiments, PCSK9 gRNAs were co-transfected with an equivalent amount (1:1 ratio by weight) of in vitro transcribed commercially available SpCas9 mRNA MS002 purchased from TriLink Biotechnologies into primary human hepatocytes at 2500, 500, or 100 ng/RNA/mL and processed as described in detailed methods. Extracted genomic DNA was analyzed for gene editing at the target site with next-generation sequencing of PCR amplicons generated around the target sites. Samples were prepared using the Nextera XT DNA library preparation kit (Illumina) according to the manufacturer's protocol. Briefly, two rounds of PCR were performed first to amplify the region of interest and second to add DNA sequences required for next generation sequencing and sample identification to the initial product. The final amplicon was sequenced on the Illumina MiSeq instrument according to the manufacturer's protocol. A wide range of editing activities (Table 2) were observed. In a second set of experiments, ANGPTL3 gRNAs were co-transfected with an equivalent amount of in vitro transcribed SpCas9 mRNA (1:1 ratio by weight) into primary human hepatocytes and processed and analyzed similarly (Table 3).
PCSK9 gRNAs were co-transfected with an equivalent amount of in vitro transcribed SpCas9 mRNA MS002 (1:1 ratio by weight) into primary human hepatocytes and processed as described in detailed methods. A wide range of editing activities were observed (Table 4; ND=Not determined). The guides with the highest editing activity at five days post transfection were GA001, GA002, GA007, and GA008.
Human primary hepatocytes were transfected at 2500, 1250, 500, and 250 ng/test article/mL with SpCas9 mRNA MS002 and a gRNA targeting PCSK9 with modifications to the tracr. Genomic DNA was processed, sequenced, and analyzed as described in the detailed methods section. GA156 was transfected to serve as a positive control.
Plating, culturing, and transfection of primary hepatocytes. Primary human liver hepatocytes (PHH) and primary cynomolgus liver hepatocytes (PCH) from BioIVT were cultured per the manufacturer's protocol. Briefly, primary human hepatocytes and primary cyno hepatocytes were obtained as frozen aliquots from BioIVT. Four lots of primary human hepatocytes, each derived from a de-identified individual donor, were used for the experiments: STL (main donor) was used for all experiments, including screening experiments and off-target experiments; HLY, JLP, and TLY were used for off-target experiments. The HFG lot of primary cyno hepatocytes were used for experiments. Following the manufacturer's instructions, cells were thawed and rinsed prior to plating in 24-well plates that had been coated with bovine collagen overnight, with a density of approximate 350,000 cells/well in INVITROGRO hepatocyte medium supplemented with TORPEDO antibiotic mix (BioIVT). The cells were thawed and resuspended in hepatocyte thawing medium followed by centrifugation at 100 g for 10 min at 4° C. The supernatant was discarded, and the pelleted cells resuspended in hepatocyte plating medium. Each vial contains approximately 5 million cells that were used for plating one 24-well plate. Plated cells were allowed to settle and adhere for 4-6 h in a tissue culture incubator at 37° C. under 5% CO2 atmosphere. After incubation, cells were checked for monolayer formation. The incubating media were then replaced with fresh hepatocyte maintenance media (complete INVITROGRO medium obtained from BioIVT, the cell line provider). The cells thus became ready for transfection. Each of the gRNAs were co-transfected with an equivalent amount of in vitro transcribed ABE8.8 mRNA (1:1 ratio by molecular weight) into primary human hepatocytes via MessengerMax reagent (Lipofectamine), using various dilutions to assess for editing activity at different concentrations of test article. MessengerMAX from Thermo Fisher is used for transfection. […]

PCSK9 gene [2] = experiment: PCSK9 gRNA/SpCas9 editing in primary cynomolgus hepatocytes (Tables 2, 22); format: cell-based, cynomolgus monkey; settings: SpCas9 mRNA MS002 1:1 by weight; for Cyno Primary Hepatocyte Editing % 100: 100 ng/RNA/mL; for Cyno Primary Hepatocyte Editing % 500: 500 ng/RNA/mL; for Cyno Primary Hepatocyte Editing % 2500: 2500 ng/RNA/mL
Procedure: as §1
[…] Genomic DNA was processed, sequenced, and analyzed as described in the detailed methods section. GA266 was transfected independently twice to serve as two positive controls.
Plating, culturing, and transfection of primary hepatocytes. Primary human liver hepatocytes (PHH) and primary cynomolgus liver hepatocytes (PCH) from BioIVT were cultured per the manufacturer's protocol. Briefly, primary human hepatocytes and primary cyno hepatocytes were obtained as frozen aliquots from BioIVT. Four lots of primary human hepatocytes, each derived from a de-identified individual donor, were used for the experiments: STL (main donor) was used for all experiments, including screening experiments and off-target experiments; HLY, JLP, and TLY were used for off-target experiments. The HFG lot of primary cyno hepatocytes were used for experiments. Following the manufacturer's instructions, cells were thawed and rinsed prior to plating in 24-well plates that had been coated with bovine collagen overnight, with a density of approximate 350,000 cells/well in INVITROGRO hepatocyte medium supplemented with TORPEDO antibiotic mix (BioIVT). The cells were thawed and resuspended in hepatocyte thawing medium followed by centrifugation at 100 g for 10 min at 4° C. The supernatant was discarded, and the pelleted cells resuspended in hepatocyte plating medium. Each vial contains approximately 5 million cells that were used for plating one 24-well plate. Plated cells were allowed to settle and adhere for 4-6 h in a tissue culture incubator at 37° C. under 5% CO2 atmosphere. After incubation, cells were checked for monolayer formation. The incubating media were then replaced with fresh hepatocyte maintenance media (complete INVITROGRO medium obtained from BioIVT, the cell line provider). The cells thus became ready for transfection. Each of the gRNAs were co-transfected with an equivalent amount of in vitro transcribed ABE8.8 mRNA (1:1 ratio by molecular weight) into primary human hepatocytes via MessengerMax reagent (Lipofectamine), using various dilutions to assess for editing activity at different concentrations of test article. MessengerMAX from Thermo Fisher is used for transfection. Solution A: desired amount of guide RNA is mixed with 1:1 wt ratio of mRNA in OptiMEM. Solution B: MessengerMAX in OptiMEM. After mixing solutions A and B, the mixture was incubated at room temperature for 20 min. 60 μL of the incubated solution was added dropwise to each cell wells. For protospacer sequences that were a perfect match to the corresponding cynomolgous monkey PCSK9 or ANGPTL3 gene sequence, each gRNA was also co-transfected with an equivalent amount of ABE8.8 mRNA (1:1 ratio by molecular weight) into primary cynomolgous hepatocytes, and followed the same transfection protocol. […]

Row | Molecule | Human Primary Hepatocyte Editing % 100 (PCSK9 gene [1]) | Human Primary Hepatocyte Editing % 500 (PCSK9 gene [1]) | Human Primary Hepatocyte Editing % 2500 (PCSK9 gene [1]) | Cyno Primary Hepatocyte Editing % 100 (PCSK9 gene [2]) | Cyno Primary Hepatocyte Editing % 500 (PCSK9 gene [2]) | Cyno Primary Hepatocyte Editing % 2500 (PCSK9 gene [2])
1 | B1 | 4.21% | 15.38% | 41.02% | 0.01% | 0.01% | 0.06%
2 | B2 | 1.14% | 6.02% | 16.7% | 0.60% | 1.50% | 10.26%
3 | B3 | 3% | 12.2% | 34.6% | 5.46% | 26.79% | 51.79%
4 | B4 | 3.58% | 13.3% | 12.57% | 0.69% | 4.77% | 18.78%
5 | B5 | 2.32% | 12.39% | 32.97% | 2.38% | 9.49% | 30.91%
6 | B6 | 2.44% | 6.47% | – | 3.77% | 12.30% | 29.24%
7 | B7 | 1.76% | 8.94% | 31.23% | 3.30% | 15.58% | 41.70%
8 | B8 | 0.62% | 2.82% | 10.03% | 0.78% | 2.93% | 13.78%
9 | B9 | 3.92% | 15.68% | 35.77% | 8.70% | 32.02% | 52.89%

— patent US20250152746A1, “BASE EDITING OF ANGPTL3 AND METHODS OF USING SAME FOR TREATMENT OF DISEASE” (Verve Therapeutics, Inc., priority 2020, published 2025)
